Laboratory results published in publication PMC12292835, “Amylin Receptor 1 Mutagenesis Revealed a Potential Role of Calcitonin Serine 29 in Receptor Interaction” (Biomedicines, 2025).
Numbering of substitutions follows the chain as printed. Names may count otherwise.

What was measured:
Assay in all cases: fluorescence polarisation; saturation binding format; 10 nM FITC-labeled peptide probe, purified receptor ECD at rising concentrations; 1 h at room temperature; anisotropy; mean pKD of at least three independent experiments
Settings in all cases: both partners purified
[1] = molecular target: T1, FITC-labeled salmon calcitonin (sCT) fragment(22–32) (salmon, fluorescein isothiocyanate (FITC) label, position not stated)
T1 construct: salmon calcitonin, residues 22-32 (11 amino acids); numbers count on: the mature 32-residue hormone; probably FITC at the N-terminus and a C-terminal amide, neither stated for this peptide; also called FITC-sCT(22–32); sCT(22–32); source: synthetic peptide (custom-synthesized, Genscript, HPLC-purified)

[2] = molecular target: T2, FITC-labeled AC413(6–25) with Y25P mutation (fluorescein isothiocyanate (FITC) on the N-terminus)
T2 construct: AC413, an antagonist amylin analog, residues 6-25 (20 amino acids) with Y25P; also called FITC-AC413(6–25) Y25P; AC413(6–25) Y25P; source: synthetic peptide (custom-synthesized, Genscript, HPLC-purified)

[3] = molecular target: T1, FITC-labeled salmon calcitonin (sCT) …; remark: listed apart in the source

B1: amylin receptor 1 extracellular domain, wild type (hRAMP1.24–111-(GSA)3-hCTR.34–141-H6) (receptor)
chain: TTACQEANYGALLRELCLTQFQVDMEAVGETLWCDWGRTIRSYRELADCTWHMAEKLGCFWPNAEVDRFFLAVHGRYFRSCPISGRAVGSAGSAGSAIEPKPFLYVVGRKKMMDAQYKCYDRMQQLPAYQGEGPYCNRTWDGWLCWDDTPAGVLSYQFCPDYFPDFDPSEKVTKYCDEKGVWFKHPENNRTWSNYTMCNAFTPEK
modifications: N-glycosylated (sites not given)
With B1 as the binder, how does the Kd [1] read?
Its Kd is 81 nM.

What about the pKD [1] of the same binder?
The pKD was 7.09.

And the Kd [2]?
The Kd was 57 nM.

And the pKD [2]?
Its pKD is 7.24.

B2: amylin receptor 1 extracellular domain with calcitonin receptor N124A (hRAMP1.24–111-(GSA)3-hCTR.34–141.N124A-H6) (receptor)
chain: B1 chain with N188A
modifications: N-glycosylated (sites not given)
What does the source list for B2?
fold decrease of affinity against the wild type [3]: > 10 fold; Kd [2]: 467 nM; pKD [2]: 6.33

B3: amylin receptor 1 extracellular domain with calcitonin receptor D97E (hRAMP1.24–111-(GSA)3-hCTR.34–141.D97E-H6) (receptor)
chain: B1 chain with D161E
modifications: N-glycosylated (sites not given)
Which results are given for B3?
Kd [1]: 161 nM; pKD [1]: 6.79; Kd [2]: 81 nM; pKD [2]: 7.09

B4: amylin receptor 1 extracellular domain with calcitonin receptor N124D (hRAMP1.24–111-(GSA)3-hCTR.34–141.N124D-H6) (receptor)
chain: B1 chain with N188D
modifications: N-glycosylated (sites not given)
Which Kd [1] does the source give for B4 here?
The Kd was 52 nM.

And the pKD [1]?
Its pKD is 7.29.

What about the Kd [2] of the same binder?
Its Kd is 822 nM.

What about the pKD [2] of the same binder?
The pKD was 6.09.

B5: amylin receptor 1 extracellular domain with calcitonin receptor D97A (hRAMP1.24–111-(GSA)3-hCTR.34–141.D97A-H6) (receptor)
chain: B1 chain with D161A
modifications: N-glycosylated (sites not given)
For B5, which Kd [1] is on record?
The Kd was 548 nM.

And the pKD [1]?
The pKD was 6.26.

What about the Kd [2] of the same binder?
The Kd was 62 nM.

What about the pKD [2] of the same binder?
Its pKD is 7.21.

B6: amylin receptor 1 extracellular domain with calcitonin receptor E123A (hRAMP1.24–111-(GSA)3-hCTR.34–141.E123A-H6) (receptor)
chain: B1 chain with E187A
modifications: N-glycosylated (sites not given)
How did the Kd [1] turn out when B6 was run?
Its Kd is 365 nM.

What about the pKD [1] of the same binder?
Its pKD is 6.44.

And the Kd [2]?
Its Kd is 129 nM.

And the pKD [2]?
The pKD was 6.89.

B7: amylin receptor 1 extracellular domain with calcitonin receptor E123D (hRAMP1.24–111-(GSA)3-hCTR.34–141.E123D-H6) (receptor)
chain: B1 chain with E187D
modifications: N-glycosylated (sites not given)
Which Kd [1] does the source give for B7 here?
Its Kd is 53 nM.

What about the pKD [1] of the same binder?
The pKD was 7.28.

What about the Kd [2] of the same binder?
Its Kd is 136 nM.

What about the pKD [2] of the same binder?
Its pKD is 6.87.
